Test results from patent publication US20230303685A1 (ELECTRA THERAPEUTICS, published 2023).

T1: Human SIRPγ CHO
T1 construct: also called human SIRPγ on CHO cells
T1 chain: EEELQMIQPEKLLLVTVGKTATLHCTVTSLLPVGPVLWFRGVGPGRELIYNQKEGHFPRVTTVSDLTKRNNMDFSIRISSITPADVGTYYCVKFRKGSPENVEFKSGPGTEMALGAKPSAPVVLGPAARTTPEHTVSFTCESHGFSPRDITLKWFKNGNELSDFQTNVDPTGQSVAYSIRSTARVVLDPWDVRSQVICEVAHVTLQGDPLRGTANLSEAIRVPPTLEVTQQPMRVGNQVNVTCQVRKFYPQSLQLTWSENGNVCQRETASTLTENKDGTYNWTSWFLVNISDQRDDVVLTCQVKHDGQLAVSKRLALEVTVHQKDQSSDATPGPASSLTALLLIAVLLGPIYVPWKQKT

T2: Human SIRPβ1
T2 construct: also called human SIRPβ1 extracellular domain, plate-coated
T2 chain: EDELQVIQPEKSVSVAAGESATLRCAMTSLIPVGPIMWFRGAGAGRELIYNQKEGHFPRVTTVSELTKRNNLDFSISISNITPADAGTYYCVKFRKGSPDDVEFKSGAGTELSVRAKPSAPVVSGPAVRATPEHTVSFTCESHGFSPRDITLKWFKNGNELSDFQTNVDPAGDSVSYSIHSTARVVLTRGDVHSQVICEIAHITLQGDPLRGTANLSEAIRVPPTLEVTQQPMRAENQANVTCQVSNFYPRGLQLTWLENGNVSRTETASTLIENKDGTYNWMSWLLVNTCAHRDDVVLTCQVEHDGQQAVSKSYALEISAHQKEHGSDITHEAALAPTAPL

T3: Human SIRPγ
T3 construct: also called human SIRPγ extracellular domain, plate-coated
T3 chain: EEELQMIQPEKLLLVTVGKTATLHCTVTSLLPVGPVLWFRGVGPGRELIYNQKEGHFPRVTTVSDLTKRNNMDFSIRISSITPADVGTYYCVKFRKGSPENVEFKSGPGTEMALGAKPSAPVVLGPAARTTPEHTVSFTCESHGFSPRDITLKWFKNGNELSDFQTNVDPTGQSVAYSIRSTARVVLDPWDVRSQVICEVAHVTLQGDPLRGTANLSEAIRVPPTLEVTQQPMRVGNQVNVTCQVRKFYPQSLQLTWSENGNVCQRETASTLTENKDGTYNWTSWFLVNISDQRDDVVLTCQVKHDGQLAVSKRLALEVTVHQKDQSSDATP


Key:
[1] = target: T4, human SIRPα V1 extracellular domain, monomeric (human, UniProt P78324 31-373); assay: SPR (Biacore); antibody captured by anti-IgG on chip, monomeric SIRPα extracellular domain as analyte, 1:1 model
T4 construct: also called hSIRPα V1
Description: (§1) Selected antibodies were tested for their affinities to two hSIRPα variants (V1 and V2), and to cynomolgus monkey (herein referred to as “cyno”) SIRPα. The affinities of these SIRP antibodies were determined using surface plasmon resonance. The SIRP antibodies were flowed onto a chip and captured by an anti-mouse IgG or an anti-human IgG covalently coupled to the surface of the chip. A three-point titration of the extracellular binding domain of hSIRPα was performed per the manufacturer's recommended protocols.

[2] = target: T5, cynomolgus monkey SIRPα extracellular domain, monomeric (cynomolgus monkey, UniProt A0A2K5VYQ9 31-372); assay: as above
T5 construct: extracellular domain; also called Cyno SIRPα
Description: as §1

[3] = target: T6, human SIRPα V2 extracellular domain, monomeric (human, UniProt P78324 31-370); assay: as above
T6 construct: also called hSIRPα V2
Description: as §1

[4] = target: T7, Human SIRPγ conjugated to an Fc region (human); assay: BLI blocking; 200 nM antibody pre-incubated with 20 nM SIRPγ-Fc, binding to immobilised CD47-His (competitor), % of response of SIRPγ-Fc alone
T7 construct: also called SIRPγ-Fc; SIRP-Fc; not shown: Fc region

Human SIRPγ CHO [5] = target: T1, Human SIRPγ CHO; assay: flow cytometry, stably transfected CHO cells, antibody titrated, labelled anti-human IgG, MFI
Description: (§2) Selected antibodies were tested for binding to stably transfected human SIRPα, SIRPβ1 (co-transfected with DAP12), or SIRPγ Chinese hamster ovary (CHO) cells via flow cytometry. A titration of SIRP antibodies was added to the cells and detected using a fluorescently labelled secondary antibody. Graph depicts the median fluorescence intensity (MFI) at each concentration.

Human SIRPβ1/DAP12 CHO [6] = target: T8, Human SIRPβ1/DAP12 CHO; assay: as above
T8 construct: also called human SIRPβ1 on CHO cells co-transfected with DAP12; copies: 1 + 2
Description: as §2

Human SIRPβ1 [7] = target: T2, Human SIRPβ1; assay: ELISA, extracellular domain coated at 2 µg/mL, purified antibody titrated, anti-human IgG, chemiluminescence
Cynomolgus Monkey SIRPβ1 = target: T9, Cynomolgus Monkey SIRPβ1 (Macaca fascicularis); assay: as above
T9 construct: extracellular domain; also called cyno SIRPβ1 extracellular domain, plate-coated

[8] = target: T5, cynomolgus monkey SIRPα extracellular …; assay: as above
Human SIRPγ [9] = target: T3, Human SIRPγ; assay: ELISA, extracellular domain coated at 1 µg/mL, purified antibody titrated, anti-human IgG, chemiluminescence
Description: (§3) Select SIRP antibodies were purified by Protein G from hybridoma supernatants and analyzed in a titration via ELISA. Briefly, 1 μg/mL of extracellular domain SIRPα was coated onto high protein-binding plates and blocked. Purified antibodies were added in a titration to the coated plates. The antibodies were detected by an anti-rat IgG antibody and a chemiluminescent substrate.
(§4) FIGS. 3A-3C show binding curves of SIRP antibodies and two isotype controls with human Fc to human SIRPα V1, human SIRPβ1, human SIRPγ and cynomolgus monkey SIRPα by ELISA. […] Isotype control 1 was an unrelated human IgG1 antibody with irrelevant CDRs. Isotype control 2 was the same as isotype control 1 but contained the same amino acid substitutions in the Fc region as some of the selected SIRP antibodies for increased FcγR binding (referring to Table 11). DNA was transiently transfected into CHO cells for 7 days. Antibodies were purified by Protein A from cell supernatants and analyzed in a titration via ELISA as previously described in FIGS. 2A-2B using an anti-human IgG antibody as the detection antibody.

Human SIRPγ [10] = target: T3, Human SIRPγ; assay: ELISA, extracellular domain coated at 2 µg/mL, purified antibody titrated, anti-human IgG, chemiluminescence
[11] = target: T10, human SIRPα V1-His monomer (human, UniProt P78324 31-373, limits assumed); assay: BLI (Octet); antibody on anti-mouse IgG capture tip, SIRP-His monomer at 100, 33.3, 11.1 nM, 1:1 fit, mean KD
T10 construct: 'SIRP-His monomer protein' of the Octet assay; also called SIRP-His; not shown: His tag
Description: (§5) Select SIRP antibodies were tested for their affinities to human SIRPα, SIRPβ1, and SIRPγ using a biolayer interferometry (BLI) Octet system (Pall ForteBio). Each SIRP antibody with rat or mouse Fc was immobilized on a biosensor tip by an anti-mouse IgG capture (AMC). Antibodies with human Fc were digested with gingipain K enzyme to yield monomeric F(ab′), biotinylated, then coated onto streptavidin biosensors. […] The biosensors were then exposed to wash buffer to measure off-rate kinetics. The resulting kinetic data were analyzed and fitted using a 1:1 binding model with kₒₙ and kdis fitted separately at each SIRP-His protein concentration. KD affinities were calculated as kdis to kₒₙ ratio at each concentration of SIRP-His and averaged.

human SIRPγ-His monomer = target: T11, human SIRPγ-His monomer (human); assay: BLI (Octet); antibody on anti-mouse IgG capture tip, SIRP-His monomer; no dissociation seen in 600 s
T11 construct: 'SIRP-His monomer protein' of the Octet assay; also called SIRP-His; not shown: His tag
Description: as §5

[12] = target: T4, human SIRPα V1 extracellular domain, …; assay: ELISA, extracellular domain coated at 1 µg/mL, purified antibody titrated, anti-human IgG, chemiluminescence
Description: as §3, §4

Human SIRPβ1 [13] = target: T2, Human SIRPβ1; assay: ELISA, extracellular domain coated at 2 µg/mL, purified antibody titrated, anti-rat or anti-mouse IgG, chemiluminescence
Description: as §3, with “2” for “1”, “of each of the SIRPs” for “SIRPα”, “IgG or an anti-mouse IgG” for “IgG”

Human SIRPγ [14] = target: T3, Human SIRPγ; assay: as above
Description: as §3, with “2” for “1”, “of each of the SIRPs” for “SIRPα”, “IgG or an anti-mouse IgG” for “IgG”

Human SIRPγ CHO [15] = target: T1, Human SIRPγ CHO; assay: flow cytometry, stably transfected CHO cells, antibody titrated, labelled anti-rat or anti-mouse IgG, MFI
Description: as §2

Human SIRPβ1/DAP12 CHO [16] = target: T8, Human SIRPβ1/DAP12 CHO; assay: as above
Description: as §2

[17] = target: T4, human SIRPα V1 extracellular domain, …; assay: ELISA, extracellular domain coated at 2 µg/mL, purified antibody titrated, anti-human IgG, chemiluminescence
Cynomolgus Monkey SIRPγ = target: T12, Cynomolgus Monkey SIRPγ (Macaca fascicularis); assay: as above
T12 construct: extracellular domain; also called cyno SIRPγ extracellular domain, plate-coated

T8 sequence (DAP12, as listed by the source limits assumed): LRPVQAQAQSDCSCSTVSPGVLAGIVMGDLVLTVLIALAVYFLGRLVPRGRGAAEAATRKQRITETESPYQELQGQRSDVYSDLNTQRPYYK

Binder | Kd [1] | Kd [2] | Kd [3] | SIRPγ-CD47 Response (%) [4] | EC50 (read off the curve) (Human SIRPγ CHO [5]) | EC50 (read off the curve) (Human SIRPβ1/DAP12 CHO [6]) | EC50 (read off the curve) (Human SIRPβ1 [7]) | EC50 (read off the curve) (Human SIRPγ [9]) | EC50 (read off the curve) (Human SIRPγ [10]) | Kd [11] | Kd (human SIRPγ-His monomer) | further results
Antibody 28 (antibody, V domains shown) VH: QVQLQESGPGLVKPSGTLSLTCAVSGGSISSSNWWSWVRQPPGKGLEWIGEIYHSGSTNYNPSLKSRVTISVDKSKNQFSLKLSSVTAADTAVYYCARRGIWFGVGPWGQGTLVTVSS VL: DIVMTQSPLSLPVTPGEPASISCRSSQSLLHGNGFNYLDWYLQKPGQSPQLLIYLGSNRASGVPDRFTGSGSGTDFTLKISRVEAEDVGVYYCMQGLQTPRTFGQGTKVEIK | 311 nM | 361 nM | 373 nM | 144% | ~0.3 µg/mL | ~0.4 µg/mL | ~0.04 µg/mL | ~0.04 µg/mL | ~0.03 µg/mL |  |  | EC50 (read off the curve) (Cynomolgus Monkey SIRPβ1): ~0.04 µg/mL; EC50 (read off the curve) [8]: ~0.04 µg/mL
Antibody 13 (antibody, V domains shown, Human variable region, rat IgG2b Fc; from hybridoma) VH: EVQMLESGGGLVQPGGSLRLSCAASGFTFSSYAMSWVRQAPGKGLEWVSAISGSGSSTHYADSVKGRFTISRDNSKNTLYLQMNSLRAEDTAVYYCAAYSGSYYYYGMDVWGQGTTVTVSS VL: EIVMTQSPATLSVSPGERATLSCRASQSVSRNLAWYQQKSGQAPRLLIYGASTRATGIPARFSGSGSGTEFTLTISSLQSEDFAGYYCQQYNNWPYTFGQGTKLEIK | 12.6 nM | 16.7 nM |  | 111% |  |  |  |  |  | 0.922 nM | < 0.001 nM | 
Antibody 29 (antibody, V domains shown) VH: EVQMLESGGGLVQPGGSLRLSCAASGFTFSSYAMSWVRQAPGKGLEWVSAISGSGSSTHYADSVKGRFTISRDNSKNTLYLQMNSLRAEDTAVYYCAAYSGSYYYYGMDVWGQGTTVTVSS VL: EIVMTQSPATLSVSPGERATLSCRASQSVSRNLAWYQQKSGQAPRLLIYGASTRATGIPARFSGSGSGTEFTLTISSLQSEDFAGYYCQQYNNWPYTFGQGTKLEIK | 8.32 nM | 11.1 nM | 10.3 nM |  |  |  |  | ~0.05 µg/mL |  |  |  | EC50 (read off the curve) [12]: ~0.06 µg/mL
Antibody 12 (antibody, V domains shown, Human variable region, rat IgG2b Fc; from hybridoma) VH: EVQVLESGGGLVQPGGSLRLSCAASGFTFSSYAMSWVRQAPGKGLEWVSAISGSGSSTHYADSVKGRFTISRDNSKNTLYLQMNSLRAEDTAVYYCAAYSGSYYYYGMDVWGQGTTVTVSS VL: not shown |  |  |  | 120% |  |  |  |  |  | 5.31 nM | < 0.001 nM | binding result (Human SIRPβ1 [13]): binds; binding result (Human SIRPγ [14]): binds; binding result (Human SIRPγ CHO [15]): binds; binding result (Human SIRPβ1/DAP12 CHO [16]): binds
Antibody 32 (antibody, V domains shown, same variable regions as Antibodies 3 and 24) VH: QVQLQESGPGLVKPSGTLSLTCAVSGGSISSSNWWSWVRQPPGKGLEWIGEIYHSGNTNYNPSLKSRVTISVDKSKNQFSLKLSSVTAADTAVYYCAREGIEGYYFYYGMDVWGQGTTVTVSS VL: DIQLTQSPSFLSASVGDRVTITCRASQGISGYLDWYQQKPGKAPKLLIYAASTLQRGVPSRFSGSGSGTDFNLTISSLQPEDFATYYCQQFTSDLITFGQGTRLEIK |  |  |  |  | ~0.2 µg/mL | ~0.3 µg/mL | ~0.03 µg/mL |  | ~0.02 µg/mL |  |  | EC50 (read off the curve) [17]: ~0.03 µg/mL; EC50 (read off the curve) (Cynomolgus Monkey SIRPγ): ~0.03 µg/mL
